Where a chain is given by its changes, count along the chain named.

To fix the notation:
B1: BMD576_PapG-DSF WT_DAF-GPI: monovalent PapG modRNA LNP; RNA construct SEQ ID NO: 65 (nucleic acid)
chain: AGGAGGACUGGUCGAACCUGCAUAGUGAUCAUAAGGUCAGCAUAGCCACCAUGGAGACCGACACCCUCCUGCUGUGGGUGCUGUUACUGUGGGUGCCCGGUAGCACCGGCUGGAACAACAUCGUGUUCUACAGCCUGGGCAACGUGAACAGCUACCAAGGCGGCAACGUGGUGAUCACACAGAGACCUCAGUUCAUCACAAGCUGGAGACCCGGCAUCGCCACCGUGACCUGGAAUCAGUGCAACGGCCCCGAGUUCGCCGACGGCAGCUGGGCCUACUACAGAGAGUACAUCGCCUGGGUGGUGUUCCCCAAGAAGGUGAUGACCAAGAACGGCUACCCCCUGUUCAUCGAGGUGCACAACAAGGGCAGCUGGAGCGAGGAGAACACCGGCGACAGCGACAGCUACUUCUUCCUGAAGGGCUACAAGUGGGACGAGAGAGCCUUCGACGCCGGCAACCUGUGUCAGAAGCCGGGGGAGACCACAAGACUUACCGAGAAGUUCAACGACAUCAUCUUCAAGGUGGCCCUGCCCGCCGACCUGCCCCUGGGCGACUACAGCGUGACCAUCCCCUACACAAGCGGCAUUCAGAGACACUUCGCUAGCUACCUGGGCGCUAGAUUCAAGAUCCCCUACAACGUGGCCAAGACCCUGCCUAGAGAGAACGAGAUGCUGUUCCUGUUCAAGAACAUCGGCGGCUGCAGACCUAGCGCUCAGAGCCUGGAGAUCAAGCACGGCGACCUGAGCAUCAACAGCGCCAACAACCACUACGCCGCUCAGACCCUGAGCGUGAGCUGCGACGUGCCCGCCAACAUCAGAUUCAUGCUGCUGAGAUCAACCACCCCCACCUACAGCCACGGCAAGAAGUUCAGCGUGGGCCUGGGCCACGGCUGGGACAGCAUCGUGAGCGUGAACGGCGUGGACACGGGCGAGACCACUAUGCGUUGGUACAAGGCCGGCACACAGAGCCUGACCAUCGGCAGCAGACUGUAUGGCGAAAGCUCCAAAAUCCAACCCGGCGUGCUGUCGGGGAGCGCCACCCUGCUGAUGAUACUGCCCGGAGGCAGCAGCGGCGGCGCCGACGUGCAGAUCAACAUCAGAGGCAACGUGUAUAUUCCGCCUAGCAGUGGUGGUGGGGGUAGCUCCGGCUCCGGAAGCAGCUGCGAGGGCAUCAGCCUGCUGGCUCAGAACACAAGCUGGCUGCUGCUGCUGCUGCUGAGCCUGAGCCUGCUGCAAGCCACCGACUUCAUGAGCCUGUGAUGAGCUCGCUUUCUUGCUGUCCAAUUUCUAUUAAAGGUUCCUUUGUUCCCUAAGUCCAACUACUAAACUGGGGGAUAUUAUGAAGGGCCUUGAGCAUCUGGAUUCUGCCUAAUAAAAAACAUUUAUUUUCAUUGCAAAAAAAAAAAAAAAAAAAAAAAAAAAAAAAAAAAAAAAAAAAAAAAAAAAAAAAAAAAAAAAAAAAAAAAAAAAAAAAAAA
modifications: modRNA in LNP
B2: BMD576_PapGLD WT_DAF-GPI: monovalent PapG modRNA LNP; RNA construct SEQ ID NO: 45 (nucleic acid)
chain: AGGAGGACUGGUCGAACCUGCAUAGUGAUCAUAAGGUCAGCAUAGCCACCAUGGAGACCGACACACUGCUGCUGUGGGUGCUUUUGUUGUGGGUGCCCGGUUCUACCGGAUGGAACAACAUCGUGUUCUACAGCCUGGGCAACGUGAACAGCUACCAAGGCGGCAACGUGGUGAUCACACAGAGACCUCAGUUCAUCACAAGCUGGAGACCCGGCAUCGCCACCGUGACCUGGAAUCAGUGCAACGGCCCCGAGUUCGCCGACGGCAGCUGGGCCUACUACAGAGAGUACAUCGCCUGGGUGGUGUUCCCCAAGAAGGUGAUGACCAAGAACGGCUACCCCCUGUUCAUCGAGGUGCACAACAAGGGCAGCUGGAGCGAGGAGAACACCGGCGACAGCGACAGCUACUUCUUCCUGAAGGGCUACAAGUGGGACGAGAGAGCCUUCGACGCCGGCAACCUGUGUCAGAAGCCCGGCGAGACCACAAGACUGACCGAGAAGUUCAACGACAUCAUCUUCAAGGUGGCCCUGCCCGCCGACCUGCCCCUGGGCGACUACAGCGUGACCAUCCCCUACACAAGCGGCAUUCAGAGACACUUCGCUAGCUACCUGGGCGCUAGAUUCAAGAUCCCCUACAACGUGGCCAAGACCCUGCCUAGAGAGAACGAGAUGCUGUUCCUGUUCAAGAACAUCGGCGGCAGUUCUGGUGGCGGUGGUUCAAGUGGUAGUGGCAGUUCAAGUGGGACAACACGACUGUUGAGCGGGCAUACGUGUUUUACGCUGACAGGUCUUCUGGGCACGCUGGUUACUAUGGGCUUGCUUACGUGAUGAGCUCGCUUUCUUGCUGUCCAAUUUCUAUUAAAGGUUCCUUUGUUCCCUAAGUCCAACUACUAAACUGGGGGAUAUUAUGAAGGGCCUUGAGCAUCUGGAUUCUGCCUAAUAAAAAACAUUUAUUUUCAUUGCAAAAAAAAAAAAAAAAAAAAAAAAAAAAAAAAAAAAAAAAAAAAAAAAAAAAAAAAAAAAAAAAAAAAAAAAAAAAAAAAAA
modifications: modRNA in LNP
B3: BMD576_PapGLD K172A_DAF-GPI: monovalent PapG modRNA LNP; RNA construct SEQ ID NO: 52 (nucleic acid)
chain: B2 chain with A624G, A625C, G626C
modifications: modRNA in LNP

The first series has as its system E. coli strain CFT073 expressing the fimbrial adhesin PapG. Briefly: PapG hemagglutination inhibition (HAI) assay on sera of mice immunized with PapG modRNA LNPs. The series is classed as in vivo. The following applies: 1 μg, 50 μl IM, weeks 0, 4, bleed week 6, GMT of individual titers. An excerpt: Escherichia coli to the uroepithelium of human kidney. The PapG lectin binds to the globoside (GbO4) glycolipid, which is enriched in urinary tract tissue and consists of the tetrasacharide GalNAcβ1-3Galα1-4Galβ1-4Glc linked to ceramide. Here we present the use of a hemagglutination inhibition assay (HAI) to determine vaccine functional responses to protein subunit PapG or mRNA-expressed PapG antigens. In this assay the agglutination of human red blood cells (hRBCs) expressing GbO4 is caused by live E. coli CFT073 bacteria expressing PapG. The HAI assay measures the ability of PapG-elicited antibodies to prevent hRBC agglutination, exemplifying inhibition of the key bacterial adherence mechanism leading to clinical pyelonephritis. The assay was used to characterize the functional activity of PapG monoclonal antibodies (mAbs) raised against a PapG lectin domain subunit antigen. PapG HAI data from a mouse immunogenicity study are described that evaluated various 5 monovalent PapG modRNA LNPs and a PapG subunit comparator.
In this mouse study immunogenicity of different PapG mRNA constructs were evaluated. […]
iii. PapG Hemagglutination Inhibition Assay (HAI) 1. Preparation of Single Use Frozen E. coli CFT073 Banks Frozen bacterial stocks for use in the PapG HAI are stored at a concentration of ˜15 OD/mL. For stock preparation, take 6 ×100 μL of frozen parental strain CFT073 glycerol stock to seed six overnight cultures with ˜85 mL Luria's Broth (LB) each in 250 mL vented flasks. Flasks are shaken at 200 rpm and 37° C. overnight. On the same day, prepare 100 mL LB media with 30% glycerol and 0.4% sucrose by mixing […] 80% Glycerol with 0.8 mL 50% Sucrose in 64 mL LB and pre-chill at 4° C. After ˜16 h growth, determine the OD600 nm of each flask with the SpectraMax M5e plate reader by adding 100 μL culture to 900 μL LB (1:10 dilution). After reading the OD600, harvest cells by pelleting in a centrifuge at 4,000g, 4° C., for 30 minute. Determine the total OD of each of the six flasks, by multiplying the volume by OD/mL of each flask and divide by 15 OD to give the appropriate pellet resuspension volume. Discard supernatants and resuspend all pellets in the pre-chilled LB cryopreservant containing 30% glycerol and 0.4% sucrose, with a final volume as calculated above. Pool all resuspended pellets and mix gently, then aliquot into 1 mL/cryotube, and freeze at −70° C.
2. Preparing 10% hRBC Working Solution From Stock
Gently mix human red blood cells (hRBC) bottle (Rockland) by rocking ˜20×times, pipet out 10 mL of the hRBCs into a 15 ml conical tube. Centrifuge at 2,000 rpm(˜990×g) for 10 minutes and 4° C. Aspirate and discard the supernatant, then resuspend the pellet with 9 mL 4° C. PBS. The packed hRBCs in 15 mL conical tube should constitute roughly 1 mL of this total volume. Store these 10% hRBCs at 4° C. until use. […]
iv. PapG Hemagglutination Inhibition (HAI) Assay
The PapG hemagglutination inhibition (HAI) assay uses human red blood cells (hRBCs), which naturally express the PapG ligand GbO4 (globotetraosyl ceramide) on the cell surface, and the E. coli strain CFT073 expressing the fimbrial adhesin PapG. Upon mixing bacteria with hRBCs, […] cells remain suspended (presenting as a cloudy well), while no binding results in the red blood cells falling out of solution towards the center of the well (observed as pellet).
The total final well volume is 100 μL, with serum dilutions comprising 25 μL of this volume, strain CFT073 cells in […] volume, and hRBCs in a 50 μL volume. The assay plate is a V-bottom plate to which 25 μL 4° C. PBS is initially added to all wells. The positive control wells receive an additional 25 μL 4° C. PBS. The no-serum negative control consists of E. coli CFT073 cells plus hRBCs only (resulting agglutinated well appears cloudy). To accommodate pre-diluted sera transferred from the serum Master Dilution plate (MDP) an extra 5 μL 4° C. PBS is added to wells in Row A of the assay plate (columns 1 to 12). […]
Consider B1, for which the “Step Titer GMT (HAI)” value is listed as 89,753.

Regarding B2, the “Step Titer GMT (HAI)” value is recorded as 94,822.

Regarding B3, the “Step Titer GMT (HAI)” value is listed as 98,165.

Still in this series, the particulars now being: 1 μg, 50 μl IM, weeks 0, 4, bleed week 6, serum pool.
As to B1, the “Step Titer Pool (HAI)” value is given as 81,000.

As to B2, the “Step Titer Pool (HAI)” value was 81,000.

In the case of B3, the “Step Titer Pool (HAI)” value is 81,000.
